Several values for one entry are separate records, joined by “and”; a condition that tells them apart may be missing. Equal entries are not always repeated.
Assays:
[1] = substrate: NCCS(=O)(=O)O; test: cells, lysate or membranes; details: other: various concentrations of [3H]taurine, 30 seconds, pH 7.4
Description: Transient transfections of COS cells with the plasmid pEVJB-rB16a were carried out using DEAE-dextran with DMSO according to the method of Lopata et al. (58) with minor modifications. COS cells were grown (37° C., 5%CO2) in high glucose Dulbecco's modified Eagle medium supplemented with 10% bovine calf serum, 100 U/ml penicillin G, and 100 μg/ml streptomycin sulfate. Cells were routinely used two days after transfection for transport studies.
Plates were incubated at 37° C. for 10 minutes unless indicated otherwise, then washed rapidly 3× with ice cold HBS. Cells were solubilized with 0.05% sodium deoxycholate/0.1N NaOH), an aliquot was neutralized with 1N HCl, and radioactivity was determined by scintillation counting. Protein was quantified in an aliquot of the solubilized cells using a BIO-RAD protein assay kit, according to the manufacturer's directions.

[2] = substrate: NCCCC(=O)O; test: cells, lysate or membranes; details: other: various concentrations of [3H]GABA, 30 seconds; pH 7.4; 37.0 °C

B1: taurine transporter (rB16a) (Rattus norvegicus) (protein)
chain: MATKEKLQCLKDFHKDILKPSPGKSPGTRPEDEADGKPPQREKWSSKIDFVLSVAGGFVGLGNVWRFPYLCYKNGGGAFLIPYFIFLFGSGLPVFFLEVIIGQYTSEGGITCWEKICPLFSGIGYASIVIVSLLNVYYIVILAWATYYLFQSFQKDLPWAHCNHSWNTPQCMEDTLRRNESHWVSLSAANFTSPVIEFWERNVLSLSSGIDHPGSLKWDLALCLLLVWLVCFFCIWKGVRSTGKVVYFTATFPFAMLLVLLVRGLTLPGAGEGIKFYLYPNISRLEDPQVWIDAGTQIFFSYAICLGAMTSLGSYNKYKYNSYRDCMLLGCLNSGTSFVSGFAIFSILGFMAQEQGVDIADVAESGPGLAFIAYPKAVTMMPLPTFWSILFFIMLLLLGLDSQFVEVEGQITSLVDLYPSFLRKGYRREIFIAIVCSISYLLGLTMVTEGGMYVFQLFDYYAASGVCLLWVAFFECFVIAWIYGGDNLYDGIEDMIGYRPGPWMKYSWAVITPALCVGCFIFSLVKYVPLTYNKVYRYPDWAIGLGWGLALSSMVCIPLVIVILLCRTEGPLRVRIKYLITPREPNRWAVEREGATPFHSRATLMNGALMKPSHVIVETMM
[1]
  Km: 43 ± 6 µM

B2: GAT-2 (Rattus norvegicus) (protein)
chain: MDNRVSGTTSNGETKPVCPVMEKVEEDGTLEREQWTNKMEFVLSVAGEIIGLGNVWRFPYLCYKNGGGAFFIPYLIFLFTCGIPVFFLETALGQYTNQGGITAWRKICPIFEGIGYASQMIVSLLNVYYIVVLAWALFYLFSSFTTDLPWGSCSHEWNTENCVEFQKTNNSLNVTSENATSPVIEFWERRVLKISDGIQHLGSLRWELVLCLLLAWIICYFCIWKGVKSTGKVVYFTATFPYLMLVVLLIRGVTLPGAAQGIQFYLYPNITRLWDPQVWMDAGTQIFFSFAICLGCLTALGSYNKYHNNCYRDCVALCILNSSTSFVAGFAIFSILGFMSQEQGVPISEVAESGPGLAFIAYPRAVVMLPFSPLWACCFFFMVVLLGLDSQFVCVESLVTALVDMYPRVFRKKNRREILILIVSVVSFFIGLIMLTEGGMYVFQLFDYYAASGMCLLFVAIFESLCVAWVYGASRFYDNIEDMIGYKPWPLIKYCWLFFTPAVCLATFLFSLIKYTPLTYNKKYTYPWWGDALGWLLALSSMVCIPAWSIYKLRTLKGPLRERLRQLVCPAEDLPQKSQPELTSPATPMTSLLRLTELESNC
[2]
  Km: 4 µM and 8 ± 3 µM
